Experimental data taken from patent US20090291081A1 (AbbVie / Abbott, published 2009).
Where “and” joins values, the source holds several entries; their conditions need not be identical. Equal entries are not always repeated.

How the values were obtained:
human IL-1β [1] = target: human IL-1β (human, UniProt P01584 117-269); test: cell-based or functional assay
human IL-1β [2] = target: T1, human IL-1β (human, UniProt P01584 117-269); test: IC50 column of Table 63; receptor binding assay presumed
T1 construct: antigen of the ABT2 dAbs; also called hIL-1β; IL-1 beta

human IL-1β [3] = target: T1, human IL-1β; test: cell-based or functional assay; remark: listed apart in the source

Binder	IC50 (human IL-1β [2]) [nM]	other results
ABT2-108/ABT1-141-25 hu IgG1/K wt (bispecific antibody, V domains shown) VH: EVQLLESGGGLVQPGGSLRLSCAASGFTFAEYTMMWVRQAPGKGLEWVSRIGQDGKNTYYADSVKGRFTISRDNSKNTLYLQMNSLRAEDTAVYYCAKYTGRVGVHHLFDYWGQGTLVTSS VL: DIQMTQSPSSLSASVGDRVTITCRASQWIQKQLAWYQQKPGKAPKLLIYSSSYLQSGVPSRFSGSGSGTDFTLTISSLQPEDFATYYCQQHLRVPMTFGQGTKVEIKR		IL-1β IC50 (human IL-1β [1]): 150 nM
ABT2-108 (other) VH: EVQLLESGGGLVQPGGSLRLSCAASGFTFAEYTMMWVRQAPGKGLEWVSRIGQDGKNTYYADSVKGRFTISRDNSKNTLYLQMNSLRAEDTAVYYCAKYTGRVGVHHLFDYWGQGTLVTSS	70	
ABT2-6 (other) VL: DIQMTQSPSSLSASVGDRVTITCRASQSIGLLLTWYQQKPGKAPKLLIYMASQLQSGVPSRFSGSGSGTDFTLTISSLQPEDFATYYCQQWHRPPSTFGQGTKVEIKR		ND50 (human IL-1β [3]): > 20 µM
ABT2-8 (other) VL: DIQMTQSPSSLSASVGDRVTITCRASQSIKSMLAWYQQKPGKAPKLLIYMASNLQSGVPSRFSGSGSGTDFTLTISSLQPEDFATYYCQQTIVKPSTFGQGTKVEIKR		ND50 (human IL-1β [3]): > 20 µM
ABT2-7 (other) VL: DIQMTQSPSSLSASVGDRVTITCRASQSIKSGLNWYQQKPGKAPKLLIYMASQLQSGVPSRFSGSGSGTDFTLTISSLQPEDFATYYCQQWHRPPSTFGQGTKVEIKR		ND50 (human IL-1β [3]): > 20 µM
ABT2-65-17/ABT1-122-511 hu IgG1/K wt (bispecific antibody, V domains shown) VH: EVQLLESGGGLVQPGGSLRLSCVASGFTFEDYQMGWVRQAPGKGLEWVSSISAMGNRTYYADSVKGRFTISRDDSKNTLYLQMNSLRAEDTAVYYCAQNLVRLGRSRWMFDYWGQGTLVTVSS VL: DIQMTQSPSSLSASVGDRVTITCRASQPIWTELNWYQQKPGKAPKLLIYGSSSLQRGVPSRFSGSGSGTDFTLTISSLQPEDFATYYCKQFAYFPATFGQGTKVEIKR		IL-1β IC50 (human IL-1β [1]): 0.1 nM and 0.16 nM
ABT2-108-620x/ABT1-122-513 huIgG1/K w (bispecific antibody, V domains shown) VH: EVQLLESGGGLVQPGGSLRLSCAASGFTFAEESWMWVRQAPGKGLEWVSRIGQDGKNTYYREDVKGRFTISRDNSKNTLYLQMNSLRAEDTAVYYCAKYTGRIMGHHLFDYWGQGTLVTVSS VL: DIQMTQSPSSLSASVGDRVTITCRASQPIWTELNWYQQKPGKAPKLLIYGSGSRQRGVPSRFSGSGSGTDFTLTISSLQPEDFATYYCKQFAYFPATFGQGTKVEIKR		IL-1β IC50 (human IL-1β [1]): 0.01 nM and 0.009 nM
ABT2-65-146 (other, VH dAb) VH: EVQLLESGGGLVQPGGSLRLSCAASGFTFEDYQMGWVRQAPGKGLEWVSSISAMGNRTYYADSVKGRFTISRDDSKNTLYLQMNSLRAEDTAVYYCAENLVRTMKRKWMFDYWGQGTLVTVSS	6	
ABT2-65-152 (other, VH dAb) VH: EVQLLESGGGLVQPGGSLRLSCAASGFTFEDYQMGWVRQAPGKGLEWVSSISAMGNRTYYADSVKGRFTISRDDSKNTLYLQMNSLRAEDTAVYYCAENLVRWKSSAWMFDYWGQGTLVTVSS	5	
ABT2-65-159 (other, VH dAb) VH: EVQLLESGGGLVQPGGSLRLSCAASGFTFEDYQMGWVRQAPGKGLEWVSSISAMGNRTYYADSVKGRFTISRDDSKNTLYLQMNSLRAEDTAVYYCAENLVRVSKARWMFDYWGQGTLVTVSS	5	
ABT2-65-151 (other, VH dAb) VH: EVQLLESGGGLVQPGGSLRLSCAASGFTFEDYQMGWVRQAPGKGLEWVSSISAMGNRTYYADSVKGRFTISRDDSKNTLYLQMNSLRAEDTAVYYCAENLVRWRKHAWMFDYWGQGTLVTVSS	6	
ABT2-65-171 (other, VH dAb) VH: EVQLLESGGGLVQPGGSLRLSCAASGFTFEDYQMGWVRQAPGKGLEWVSSISAMGNRTYYADSVKGRFTISRDDSKNTLYLQMNSLRAEDTAVYYCAQNLVRLNRSQWMFDYWGQGTLVTVSS	7.5	
ABT2-65-168 (other, VH dAb) VH: EVQLLESGGGLVQPGGSLRLSCAASGFTFEDYQMGWVRQAPGKGLEWVSSISAMGNRTYYADSVKGRFTISRDDSKNTLYLQMNSLRAEDTAVYYCAQNLVRWKLESWMFDYWGQGTLVTVSS	30	
ABT2-65-175 (other, VH dAb) VH: EVQLLESGGGLVQPGGSLRLSCAASGFTFEDYQMGWVRQAPGKGLEWVSSISAMGNRTYYADSVKGRFTISRDDSKNTLYLQMNSLRAEDTAVYYCAENLVRIAGDRWMFDYWGQGTLVTVSS	10	
ABT2-65-167 (other, VH dAb) VH: EVQLLESGGGLVQPGGSLRLSCAASGFTFEDYQMGWVRQAPGKGLEWVSSISAMGNRTYYADSVKGRFTISRDDSKNTLYLQMNSLRAEDTAVYYCAQNLVRWKKNEWMFDYWGQGTLVTVSS	30	
ABT2-65-149 (other, VH dAb) VH: EVQLLESGGGLVQPGGSLRLSCAASGFTFEDYQMGWVRQAPGKGLEWVSSISAMGNRTYYADSVKGRFTISRDDSKNTLYLQMNSLRAEDTAVYYCAENLVRVDRRRWMFDYWGQGTLVTVSS	4	

Binder	IC50 (human IL-1β [2]) [nM]	other results
ABT2-65-155 (other, VH dAb) VH: EVQLLESGGGLVQPGGSLRLSCAASGFTFEDYQMGWVRQAPGKGLEWVSSISAMGNRTYYADSVKGRFTISRDDSKNTLYLQMNSLRAEDTAVYYCAQNLVLVQRRKWMFDYWGQGTLVTVSS	5	
ABT2-65-145 (other, VH dAb) VH: EVQLLESGGGLVQPGGSLRLSCAASGFTFEDYQMGWVRQAPGKGLEWVSSISAMGNRTYYADSVKGRFTISRDDSKNTLYLQMNSLRAEDTAVYYCAENLVRIQKVKWMFDYWGQGTLVTVSS	5	
ABT2-65-158 (other, VH dAb) VH: EVQLLESGGGLVQPGGSLRLSCAASGFTFEDYQMGWVRQAPGKGLEWVSSISAMGNRTYYADSVKGRFTISRDDSKNTLYLQMNSLRAEDTAVYYCAQNLVKWKRDFWMFDYWGQGTLVTVSS	5	
ABT2-65-177 (other, VH dAb) VH: EVQLLESGGGLVQPGGSLRLSCAASGFTFEDYQMGWVRQAPGKGLEWVSSISAMGNRTYYADSVKGRFTISRDDSKNTLYLQMNSLRAEDTAVYYCAQNLVRFKVLQWMFDYWGQGTLVTVSS	20	
ABT2-65-169 (other, VH dAb) VH: EVQLLESGGGLVQPGGSLRLSCAASGFTFEDYQMGWVRQAPGKGLEWVSSISAMGNRTYYADSVKGRFTISRDDSKNTLYLQMNSLRAEDTAVYYCAENLVNWRRGSWMFDYWGQGTLVTVSS	9	
ABT2-65-176 (other, VH dAb) VH: EVQLLESGGGLVQPGGSLRLSCAASGFTFEDYQMGWVRQAPGKGLEWVSSISAMGSRTYYADSVKGRFTISRDDSKNTLYLQMNSLRAEDTAVYYCAENLVKVARGRWMFDYWGQGTLVTVSS	5	
ABT2-65-174 (other, VH dAb) VH: EVQLLESGGGLVQPGGSLRLSCAASGFTFEDYQMGWVRQAPGKGLEWVSSISAMGNRTYYADSVKGRFTISRDDSKNTLYLQMNSLRAEDTAVYYCAQNLVRFKKTQWMFDYWGQGTLVTVSS	10	
ABT2-65-156 (other, VH dAb) VH: EVQLLESGGGLVQPGGSLRLSCAASGFTFEDYQMGWVRQAPGKGLEWVSSISAMGNRTYYADSVKGRFTISRDDSKNTLYLQMNSLRAEDTAVYYCAQNLVRIGRNKWMFDYWGQGTLVTVSS	5	
ABT2-65-172 (other, VH dAb) VH: EVQLLESGGGLVQPGGSLRLSCAASGFTFEDYQMGWVRQAPGKGLEWVSSISAMGNRTYYADSVKGRFTISRDDSKNTLYLQMNSLRAEDTAVYYCAENLVRWKKGSWMFDYWGQGTLVTVSS	6	
ABT2-65-148 (other, VH dAb) VH: EVQLLESGGGLVQPGGSLRLSCAASGFTFEDYQMGWVRQAPGKGLEWVSSISAMGNRTYYADSVKGRFTISRDDSKNTLYLQMNSLRAEDTAVYYCAQNLVRLGSKRWMFDYWGQGTLVTVSS	4	
ABT2-65-170 (other, VH dAb) VH: EVQLLESGGGLVQPGGSLRLSCAASGFTFEDYQMGWVRQAPGKGLEWVSSISAMGNRTYYADSVKGRFTISRDDSKNTLYLQMNSLRAEDTAVYYCAENLVRVLLNKWMFDYWGQGTLVTVSS	10	
ABT2-65-173 (other, VH dAb) VH: EVQLLESGGGLVQPGGSLRLSCAASGFTFEDYQMGWVRQAPGKGLEWVSSISAMGNRTYYADSVKGRFTISRDDSKNTLYLQMNSLRAEDTAVYYCAQNLVRFRAKEWMFDYWGQGTLVTVSS	30	
ABT2-42 (other) VL: DIQMTQSPSSLSASVGDRVTITCRASQYIEKWLTWYQQKPGKAPTLLIYRGSLLQSGVPSRFSGSGSGTDFTLTISSLQPEDFATYYCQQTEYWPFTFGQGTKVEIKR	770	
ABT2-46 (other) VL: DIQMTQSPSSLSASVGDRVTITCRASQSIIEWLSWYQQKPGKAPKLLIYRTSVLQSGVPSRFSGSGSGTDFTLTISSLQPEDFATYYCQQNEFWPFTFGQGTKVEIKR	390	
ABT2-10 (other) VH: EVQLLESGGGLVQPGGSLRLSCTASGFTFNRYNMAWARQAPGKGLEWVSEIDLKGSQTYYADSVKGRFTISRDNSKNTLYLQMNSLRAEDTAVYYCAKVSISAYHMFDYWGQGTLVTVSS		ND50 (human IL-1β [3]): 6 µM
ABT2-65-10 (other, VH dAb) VH: VQLSESGGGLVQPGGSLRLSCAASGFTFTEYNMGWVRQAPGKGLEWVSSISAMGNRTYYADSVKGRFTISRDDSKNTLYLQMNSLRAEDTAVYYCANNLVRTQSKMWMFDYWGQGTLVTVSS	20	
